Each block holds one substance with its values, some of them ahead of it.
Columns and labels:
[1] = biological target: fluorescein-maleimide labeled ABD2 of PLS2 (human); test: fluorescence polarisation; stopped-flow fluorescence anisotropy kinetics, 25 °C, buffer pH 7.0; association: FM-ABD2 (50 or 100 nM) with at least 10-fold excess of the unlabeled RD-ABD1 construct (pseudo-first-order); dissociation: 25 or 50 nM FM-ABD2 bound to 50 or 100 nM RD-ABD1 construct, competed with 7.5 to 20 μM unlabeled ABD2; Kd calculated from koff and kon
[2] = biological target: fluorescein-maleimide labeled ABD2 of PLS2 (human); test: fluorescence polarisation; stopped-flow fluorescence anisotropy kinetics, 25 °C, buffer pH 7.4; association: FM-ABD2 (50 or 100 nM) with at least 10-fold excess of unlabeled RD-ABD1 (pseudo-first-order); dissociation: 25 or 50 nM FM-ABD2 bound to 50 or 100 nM RD-ABD1, competed with 7.5 to 20 μM unlabeled ABD2; Kd calculated from koff and kon
[3] = biological target: fluorescein-maleimide labeled ABD2 of PLS2 (human); test: fluorescence polarisation; stopped-flow fluorescence anisotropy kinetics, 25 °C, buffer pH 7.8; association: FM-ABD2 (50 or 100 nM) with at least 10-fold excess of unlabeled RD-ABD1 (pseudo-first-order); dissociation: 25 or 50 nM FM-ABD2 bound to 50 or 100 nM RD-ABD1, competed with 7.5 to 20 μM unlabeled ABD2; Kd calculated from koff and kon
[4] = biological target: fluorescein-maleimide labeled ABD2 of PLS2 (human); test: fluorescence polarisation; equilibrium fluorescence anisotropy in a plate reader, 10 nM FM-ABD2 with increasing RD-ABD1, 60 min at 22 °C, PLS buffer pH 8.0, quadratic isotherm fit
[5] = biological target: fluorescein-maleimide labeled ABD2 of PLS2 (human); test: fluorescence polarisation; equilibrium fluorescence anisotropy in a plate reader, 10 nM FM-ABD2 with increasing RD-ABD1, 60 min at 22 °C, PLS buffer pH 7.0, quadratic isotherm fit
[6] = biological target: fluorescein-maleimide labeled ABD2 of PLS2 (human); test: fluorescence polarisation; stopped-flow fluorescence anisotropy kinetics, 25 °C, buffer pH 8.0; association: FM-ABD2 (50 or 100 nM) with at least 10-fold excess of the unlabeled RD-ABD1 construct (pseudo-first-order); dissociation: 25 or 50 nM FM-ABD2 bound to 50 or 100 nM RD-ABD1 construct, competed with 7.5 to 20 μM unlabeled ABD2; Kd calculated from koff and kon
[7] = biological target: fluorescein-maleimide labeled ABD2 of PLS2 (human); test: fluorescence polarisation; stopped-flow fluorescence anisotropy kinetics, 25 °C, buffer pH 6.6; association: FM-ABD2 (50 or 100 nM) with at least 10-fold excess of unlabeled RD-ABD1 (pseudo-first-order); dissociation: 25 or 50 nM FM-ABD2 bound to 50 or 100 nM RD-ABD1, competed with 7.5 to 20 μM unlabeled ABD2; Kd calculated from koff and kon
[8] = biological target: Skeletal actin, filamentous (F-actin) (rabbit) (UniProt P68135)
[9] = biological target: Skeletal actin, filamentous (F-actin) (rabbit) (UniProt P68135); test: fluorescence polarisation; stopped-flow fluorescence anisotropy kinetics, pH 7.4, 25 °C; association: FM-ABD2 (50 or 100 nM) with at least 10-fold F-actin; dissociation: from phalloidin-stabilized F-actin with excess unlabeled ABD2; Kd from koff and kon
[10] = biological target: PLS2 RD-ABD1 (a.a. 1-385) (human) (UniProt P13796); test: fluorescence polarisation; equilibrium fluorescence anisotropy, pH 7.0, PLS buffer, 22 °C, 60 min; 10 nM FM-ABD2 with RD-ABD1; quadratic isotherm
[11] = biological target: Skeletal actin, filamentous (F-actin) (rabbit) (UniProt P68135); test: fluorescence polarisation; stopped-flow fluorescence anisotropy kinetics, pH 7.8, 25 °C; association of FM-ABD2 (50 or 100 nM) with at least 10-fold F-actin; koff could not be measured
[12] = biological target: Skeletal actin, filamentous (F-actin) (rabbit) (UniProt P68135); test: fluorescence polarisation; equilibrium fluorescence anisotropy in a plate reader, 5 nM FM-ABD2 with F-actin stabilized with 1.0 uM phalloidin, PLS buffer pH 7.0, 22 °C, quadratic isotherm
[13] = biological target: Skeletal actin, filamentous (F-actin) (rabbit) (UniProt P68135); test: fluorescence polarisation; equilibrium fluorescence anisotropy in a plate reader, 5 nM FM-ABD2 with F-actin stabilized with 1.0 uM phalloidin, PLS buffer pH 8.0, 22 °C, quadratic isotherm
[14] = biological target: PLS2 RD-ABD1 (a.a. 1-385) (human) (UniProt P13796); test: fluorescence polarisation; stopped-flow fluorescence anisotropy, 25 °C, PLS buffer pH 7.4; association of FM-ABD2 (50 or 100 nM) with excess RD-ABD1 (kon from the slope of kobs, line forced through koff); dissociation by competition with 7.5 to 20 uM unlabeled ABD2 (koff)
[15] = biological target: PLS2 RD-ABD1 (a.a. 1-385) (human) (UniProt P13796); test: fluorescence polarisation; stopped-flow fluorescence anisotropy, 25 °C, PLS buffer pH 8.0; association of FM-ABD2 (50 or 100 nM) with excess RD-ABD1 (kon from the slope of kobs, line forced through koff); dissociation by competition with 7.5 to 20 uM unlabeled ABD2 (koff)
[16] = biological target: Skeletal actin, filamentous (F-actin) (rabbit) (UniProt P68135); test: fluorescence polarisation; stopped-flow fluorescence anisotropy kinetics, pH 8.0, 25 °C; association of FM-ABD2 (50 or 100 nM) with at least 10-fold F-actin; koff could not be measured
[17] = biological target: Skeletal actin, filamentous (F-actin) (rabbit) (UniProt P68135); test: fluorescence polarisation; equilibrium fluorescence anisotropy, pH 8.0, PLS buffer, 22 °C, 60 min; 5 nM FM-ABD2 with F-actin stabilized with 1.0 μM phalloidin; quadratic isotherm
[18] = biological target: PLS2 RD-ABD1-H207K (human) (UniProt P13796); test: fluorescence polarisation; stopped-flow fluorescence anisotropy kinetics of FM-ABD2 with RD-ABD1-H207K and RD-ABD1-H207Y, 25 °C, pH 7.0 and 8.0 (fold changes for both pH values together); dissociation with excess unlabeled ABD2
[19] = biological target: PLS2 RD-ABD1-H207Y (human) (UniProt P13796); test: as above
[20] = biological target: PLS2 RD-ABD1 (a.a. 1-385) (human) (UniProt P13796); test: fluorescence polarisation; stopped-flow fluorescence anisotropy, 25 °C, PLS buffer pH 7.8; association of FM-ABD2 (50 or 100 nM) with excess RD-ABD1 (kon from the slope of kobs, line forced through koff); dissociation by competition with 7.5 to 20 uM unlabeled ABD2 (koff)
[21] = biological target: Skeletal actin, filamentous (F-actin) (rabbit) (UniProt P68135); test: fluorescence polarisation; stopped-flow fluorescence anisotropy kinetics, pH 6.8, 25 °C; association: FM-ABD2 (50 or 100 nM) with at least 10-fold F-actin; dissociation: from phalloidin-stabilized F-actin with excess unlabeled ABD2; Kd from koff and kon
[22] = biological target: Skeletal actin, filamentous (F-actin) (rabbit) (UniProt P68135); test: fluorescence polarisation; stopped-flow fluorescence anisotropy kinetics, pH 6.6, 25 °C; association: FM-ABD2 (50 or 100 nM) with at least 10-fold F-actin; dissociation: from phalloidin-stabilized F-actin with excess unlabeled ABD2; Kd from koff and kon
[23] = biological target: Skeletal actin, filamentous (F-actin) (rabbit) (UniProt P68135); test: fluorescence polarisation; stopped-flow fluorescence anisotropy kinetics, pH 7.0, 25 °C; association: FM-ABD2 (50 or 100 nM) with at least 10-fold F-actin; dissociation: from phalloidin-stabilized F-actin with excess unlabeled ABD2; Kd from koff and kon
[24] = biological target: PLS2 RD-ABD1 (a.a. 1-385) (human) (UniProt P13796); test: fluorescence polarisation; stopped-flow fluorescence anisotropy, 25 °C, PLS buffer pH 7.0; association of FM-ABD2 (50 or 100 nM) with excess RD-ABD1 (kon from the slope of kobs, line forced through koff); dissociation by competition with 7.5 to 20 uM unlabeled ABD2 (koff)
[25] = biological target: Skeletal actin, filamentous (F-actin) (rabbit) (UniProt P68135); test: fluorescence polarisation; equilibrium fluorescence anisotropy, pH 7.0, PLS buffer, 22 °C, 60 min; 5 nM FM-ABD2 with F-actin stabilized with 1.0 μM phalloidin; quadratic isotherm
[26] = biological target: PLS2 RD-ABD1 (a.a. 1-385) (human) (UniProt P13796); test: fluorescence polarisation; stopped-flow fluorescence anisotropy, 25 °C, PLS buffer pH 6.6; association of FM-ABD2 (50 or 100 nM) with excess RD-ABD1 (kon from the slope of kobs, line forced through koff); dissociation by competition with 7.5 to 20 uM unlabeled ABD2 (koff)
[27] = biological target: PLS2 RD-ABD1 (a.a. 1-385) (human) (UniProt P13796); test: fluorescence polarisation; stopped-flow fluorescence anisotropy kinetics of FM-ABD2 with RD-ABD1, 25 °C, pH 6.6 to 8.0 (the text tells the results for the whole pH range together); dissociation with excess unlabeled ABD2

PLS2 RD-ABD1 (a.a. 1-385) (human), sequence (P13796 1-385): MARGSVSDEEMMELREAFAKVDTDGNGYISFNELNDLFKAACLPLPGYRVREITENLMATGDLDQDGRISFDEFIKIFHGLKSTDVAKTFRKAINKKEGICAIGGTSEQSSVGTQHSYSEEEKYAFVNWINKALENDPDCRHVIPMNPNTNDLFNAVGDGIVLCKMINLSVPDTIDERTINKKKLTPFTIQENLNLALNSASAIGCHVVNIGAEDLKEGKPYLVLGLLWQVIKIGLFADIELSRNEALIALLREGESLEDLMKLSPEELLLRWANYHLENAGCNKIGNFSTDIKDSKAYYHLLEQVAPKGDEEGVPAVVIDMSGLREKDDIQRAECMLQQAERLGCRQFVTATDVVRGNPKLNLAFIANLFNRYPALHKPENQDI
PLS2 RD-ABD1 (a.a. 1–385), sequence (P13796 1-385): as above
PLS2-core (a.a. 83–627), sequence (P13796 83-627): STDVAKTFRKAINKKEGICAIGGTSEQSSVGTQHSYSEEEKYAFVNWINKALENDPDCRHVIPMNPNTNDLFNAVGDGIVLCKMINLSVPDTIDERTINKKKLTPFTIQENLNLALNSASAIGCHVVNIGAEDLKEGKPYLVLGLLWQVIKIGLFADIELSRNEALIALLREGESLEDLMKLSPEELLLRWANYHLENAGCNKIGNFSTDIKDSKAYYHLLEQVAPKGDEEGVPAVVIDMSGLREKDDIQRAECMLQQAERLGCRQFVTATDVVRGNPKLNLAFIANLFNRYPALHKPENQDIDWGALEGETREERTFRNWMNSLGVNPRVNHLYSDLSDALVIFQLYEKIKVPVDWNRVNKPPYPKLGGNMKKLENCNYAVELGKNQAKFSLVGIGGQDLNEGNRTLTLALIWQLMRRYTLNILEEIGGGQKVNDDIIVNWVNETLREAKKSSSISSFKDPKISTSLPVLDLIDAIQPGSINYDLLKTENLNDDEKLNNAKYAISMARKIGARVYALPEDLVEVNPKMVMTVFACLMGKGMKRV

Substance: PLS2 RD-ABD1 (a.a. 1–385) (from UniProt P13796 1-385) (domain or fragment)
Kd [1]: 5.7 nM
koff [1]: 0.009 s⁻¹
kon [1]: 1.6e+06 M⁻¹ s⁻¹
Kd [2]: 11 nM
koff [2]: 0.013 s⁻¹
kon [2]: 1.24e+06 M⁻¹ s⁻¹
Kd [3]: 7.7 nM
koff [3]: 0.008 s⁻¹
kon [3]: 1.07e+06 M⁻¹ s⁻¹
Kd [4]: 8.7 nM
Kd [5]: 4.5 nM
Kd [6]: 7.6 nM
koff [6]: 0.008 s⁻¹
kon [6]: 1.01e+06 M⁻¹ s⁻¹
Kd [7]: 5.1 nM
koff [7]: 0.01 s⁻¹
kon [7]: 1.94e+06 M⁻¹ s⁻¹

Substance: PLS2 RD-ABD1-H207K (from UniProt P13796 1-385) (domain or fragment)
Kd [1]: 24 nM
koff [1]: 0.039 s⁻¹
kon [1]: 1.59e+06 M⁻¹ s⁻¹
kon [6]: 1.12e+06 M⁻¹ s⁻¹

Substance: PLS2-core (a.a. 83–627) (from UniProt P13796 83-627) (domain or fragment)
fold decrease in F-actin bundling by PLS2-core (light scattering; low-speed centrifugation), pH 8.0 against pH 7.0 [8]: 2 fold

More lines, now with the values ahead:

Kd [1]: 1.1 nM
koff [1]: 0.0021 s⁻¹
kon [1]: 1.87e+06 M⁻¹ s⁻¹
Kd [6]: 2.2 nM
koff [6]: 0.0026 s⁻¹
kon [6]: 1.21e+06 M⁻¹ s⁻¹
Substance: PLS2 RD-ABD1-H207Y (from UniProt P13796 1-385) (domain or fragment)

Kd [9]: 12 nM
koff [9]: 0.0073 s⁻¹
kon [9]: 601000 M⁻¹ s⁻¹
fold stronger association at pH 7.0 than at pH 8.0 [10]: 2 fold
kon [11]: 1.28e+06 M⁻¹ s⁻¹
Kd [12]: 2.88 nM
Kd [13]: 0.613 nM
koff [14]: 0.0135 s⁻¹
kon [14]: 1.24e+06 M⁻¹ s⁻¹
koff [15]: 0.0077 s⁻¹
kon [15]: 1.01e+06 M⁻¹ s⁻¹
kon [16]: 1.45e+06 M⁻¹ s⁻¹
Kd [17]: 1.7 nM
fold change of kon against WT RD-ABD1 [18]: < 1.2 fold
fold increase of koff against WT RD-ABD1 [18]: 4 to 12 fold
fold change of kon against WT RD-ABD1 [19]: < 1.2 fold
fold decrease of koff against WT RD-ABD1 [19]: 3 to 4 fold
koff [20]: 0.00826 s⁻¹
kon [20]: 1.07e+06 M⁻¹ s⁻¹
Kd [21]: 13 nM
koff [21]: 0.0066 s⁻¹
kon [21]: 502000 M⁻¹ s⁻¹
Kd [22]: 15 nM
koff [22]: 0.0073 s⁻¹
kon [22]: 479000 M⁻¹ s⁻¹
Kd [23]: 9.5 nM
koff [23]: 0.0057 s⁻¹
kon [23]: 600000 M⁻¹ s⁻¹
koff [24]: 0.00905 s⁻¹
kon [24]: 1.6e+06 M⁻¹ s⁻¹
Kd [25]: 5 nM
koff [26]: 0.00992 s⁻¹
kon [26]: 1.94e+06 M⁻¹ s⁻¹
fold slower kon at pH 8.0 than at pH 6.6 [27]: 2 fold
koff [27]: 0.008 s⁻¹
Substance: fluorescein-maleimide labeled PLS2 ABD2 (FM-ABD2) (domain or fragment)
